Measurements taken from the supplement of paper PMC9732359.
± gives the uncertainty stated by the source.

Assay: protein stability index of a GFP-peptide fusion (yeast GPS) (PSI 1-4); higher = more stable; sorted into four equal gates, so the index is relative within each strain
How it was run: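 Peptides tiling yeast proteins in 17-residue segments were fused downstream of GFP, with Cherry expressed from the same plasmid. As a pooled library in yeast, mid-log cultures grown in leucine-free medium were sorted into four equal gates by GFP/Cherry fluorescence ratio. Gate plasmids were PCR-amplified and Illumina-sequenced, and barcodes linked reads to strains. Each peptide received a protein stability index equal to the sum of each gate's read frequency times its gate number.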

EFDSTDTSLCINGEPSI [RRI1]
protein stability index (doa10∆): 3.16 ± 0.077
protein stability index (pdr5∆): 3.15 ± 0.088
protein stability index (san1∆): 3.08 ± 0.054
protein stability index (ubr1∆): 3.24 ± 0.046

LMNGVKPFKSFLKKNII [FAS1]
protein stability index (san1∆): 3.36 ± 0.16
protein stability index (ubr1∆): 3.27 ± 0.087

FEGNALIRRLVRVGVLS [RPS9A]
protein stability index (doa10∆): 2.44 ± 0.1
protein stability index (pdr5∆): 2.52 ± 0.18
protein stability index (ubr1∆): 1.15 ± 0.17

TLGVVGKSEKLSLLLVE [SKI6]
protein stability index (doa10∆): 2.8 ± 0.051
protein stability index (pdr5∆): 3.04 ± 0.048
protein stability index (san1∆): 3.11 ± 0.035
protein stability index (ubr1∆): 2.96 ± 0.049

GGKSVGFGLVYNSVAEA [RPS24A]
protein stability index (doa10∆): 3.11 ± 0.052
protein stability index (pdr5∆): 3.29 ± 0.05
protein stability index (san1∆): 3.15 ± 0.035
protein stability index (ubr1∆): 2.84 ± 0.054

EESIRESLQKRELLKSQ [SIR3]
protein stability index (doa10∆): 3.13 ± 0.063
protein stability index (pdr5∆): 3.32 ± 0.068
protein stability index (san1∆): 3 ± 0.056
protein stability index (ubr1∆): 3.12 ± 0.059

GHEELKRRIEEEQEKIN [ISW2]
protein stability index (doa10∆): 3.36 ± 0.082
protein stability index (pdr5∆): 3.47 ± 0.086
protein stability index (san1∆): 3.13 ± 0.062
protein stability index (ubr1∆): 3.35 ± 0.055

LWNQWLKLNTSLPSKLT [SRP68]
protein stability index (doa10∆): 1.45 ± 0.049
protein stability index (pdr5∆): 1.51 ± 0.052
protein stability index (san1∆): 1.36 ± 0.11
protein stability index (ubr1∆): 1.83 ± 0.037

LINEILLKSNDPLLSLY [RGR1]
protein stability index (doa10∆): 2.04 ± 0.046
protein stability index (pdr5∆): 2.15 ± 0.043
protein stability index (san1∆): 1.87 ± 0.077
protein stability index (ubr1∆): 2.13 ± 0.035

LEIAKDFQPTELFDILS [IRR1]
protein stability index (doa10∆): 3.07 ± 0.13
protein stability index (pdr5∆): 2.33 ± 0.11
protein stability index (san1∆): 2.8 ± 0.079
protein stability index (ubr1∆): 3.08 ± 0.086

NEDLEDGHYIEENSQGN [REC8]
protein stability index (pdr5∆): 3.37 ± 0.27

VYTAIYNYCVNKSRSSG [CDC53]
protein stability index (doa10∆): 2.48 ± 0.074
protein stability index (pdr5∆): 2.62 ± 0.057
protein stability index (san1∆): 2.61 ± 0.053
protein stability index (ubr1∆): 2.71 ± 0.043

PPKHTELLLTTLSVSHG [SSN2]
protein stability index (doa10∆): 1.79 ± 0.038
protein stability index (pdr5∆): 1.8 ± 0.038
protein stability index (san1∆): 1.55 ± 0.07
protein stability index (ubr1∆): 1.61 ± 0.027

SKSLQESGDTQEEDEEE [RPC82]
protein stability index (doa10∆): 3.5 ± 0.19
protein stability index (pdr5∆): 3.48 ± 0.15
protein stability index (san1∆): 3.29 ± 0.08
protein stability index (ubr1∆): 3.48 ± 0.12

SSLVRSCGEEEFFSTNW [REC8]
protein stability index (doa10∆): 3.49 ± 0.23
protein stability index (pdr5∆): 3.52 ± 0.18
protein stability index (ubr1∆): 3.18 ± 0.2

ELKTRDATNTSYKMIQL [SWP82]
protein stability index (doa10∆): 3.39 ± 0.1
protein stability index (pdr5∆): 3.5 ± 0.078
protein stability index (san1∆): 3.16 ± 0.059
protein stability index (ubr1∆): 3.29 ± 0.047

PPQLANQQQPPQDILSK [SNF11]
protein stability index (doa10∆): 2.26 ± 0.055
protein stability index (pdr5∆): 2.87 ± 0.069
protein stability index (san1∆): 2.41 ± 0.065
protein stability index (ubr1∆): 2.69 ± 0.052

FIRVIGSELVQKYVGEG [RPT1]
protein stability index (doa10∆): 2.59 ± 0.21
protein stability index (pdr5∆): 2.57 ± 0.076
protein stability index (san1∆): 3 ± 0.083
protein stability index (ubr1∆): 2.84 ± 0.05

LPTVGFDFIKDNETPSK [YOR098C/NUP1]
protein stability index (doa10∆): 3.15 ± 0.093
protein stability index (pdr5∆): 3.2 ± 0.056
protein stability index (san1∆): 3.08 ± 0.068
protein stability index (ubr1∆): 3.27 ± 0.053

TIEDIAVAITRASKLKI [RPO31]
protein stability index (doa10∆): 1.63 ± 0.081
protein stability index (pdr5∆): 1.76 ± 0.063
protein stability index (san1∆): 2.1 ± 0.12
protein stability index (ubr1∆): 1.97 ± 0.06

IAGVITRSKRLSQVYPT [CSN12]
protein stability index (doa10∆): 2.91 ± 0.18
protein stability index (pdr5∆): 2.84 ± 0.11
protein stability index (san1∆): 3.11 ± 0.12
protein stability index (ubr1∆): 3.01 ± 0.071

LAQTLKLWRKIARLYSC [RRI2]
protein stability index (doa10∆): 1.2 ± 0.07
protein stability index (pdr5∆): 1.21 ± 0.058
protein stability index (san1∆): 1.34 ± 0.096
protein stability index (ubr1∆): 1.26 ± 0.053

ELESMLEDLKNTKEIAV [RRP6]
protein stability index (doa10∆): 2.18 ± 0.08
protein stability index (pdr5∆): 2.27 ± 0.051
protein stability index (san1∆): 2.33 ± 0.063
protein stability index (ubr1∆): 2.61 ± 0.044

SYVNYRHMALLVDVMTT [RPO21]
protein stability index (doa10∆): 1.23 ± 0.049
protein stability index (pdr5∆): 1.25 ± 0.049
protein stability index (san1∆): 1.2 ± 0.062
protein stability index (ubr1∆): 1.18 ± 0.034

KIFTPNLLQISAAELER [SNF5]
protein stability index (doa10∆): 1.77 ± 0.064
protein stability index (pdr5∆): 1.97 ± 0.061
protein stability index (san1∆): 1.76 ± 0.1
protein stability index (ubr1∆): 1.33 ± 0.066

ESNVNDSDMLTKSHNTV [NUT1]
protein stability index (doa10∆): 3.08 ± 0.1
protein stability index (pdr5∆): 3.25 ± 0.095
protein stability index (san1∆): 3.28 ± 0.086
protein stability index (ubr1∆): 3.43 ± 0.1

SVARVEDHDVHSNESSN [IRR1]
protein stability index (doa10∆): 2.7 ± 0.059
protein stability index (pdr5∆): 2.99 ± 0.061
protein stability index (san1∆): 3.01 ± 0.052
protein stability index (ubr1∆): 2.81 ± 0.058

FKGALTIKILPENTAMF [YMR129W/POM152]
protein stability index (doa10∆): 2.32 ± 0.083
protein stability index (pdr5∆): 2.14 ± 0.052
protein stability index (san1∆): 2.33 ± 0.056
protein stability index (ubr1∆): 2.25 ± 0.05

IIYHTTFSWLNAELLDY [YLR018C/POM34]
protein stability index (doa10∆): 2.72 ± 0.072
protein stability index (pdr5∆): 2.19 ± 0.068
protein stability index (san1∆): 2.56 ± 0.092
protein stability index (ubr1∆): 2.41 ± 0.052

AYFMVGAMGLLSSAGAK [RIP1]
protein stability index (doa10∆): 1.99 ± 0.11
protein stability index (pdr5∆): 2.51 ± 0.11
protein stability index (san1∆): 2.06 ± 0.18
protein stability index (ubr1∆): 2.34 ± 0.091

GAGIERELARIKKYASV [RPL3]
protein stability index (doa10∆): 3.49 ± 0.21
protein stability index (pdr5∆): 3.46 ± 0.17

SKLMPVLKSSVYEYVIA [RPC82]
protein stability index (doa10∆): 1.42 ± 0.061
protein stability index (pdr5∆): 1.57 ± 0.059
protein stability index (san1∆): 1.25 ± 0.1
protein stability index (ubr1∆): 1.46 ± 0.056

IVMEDHGVLQGTSQNYG [MED1]
protein stability index (doa10∆): 3.11 ± 0.059
protein stability index (pdr5∆): 3.02 ± 0.067
protein stability index (san1∆): 3.13 ± 0.062
protein stability index (ubr1∆): 3.07 ± 0.049

ADKIVDEFPELKEPVED [NUT2]
protein stability index (doa10∆): 3.71 ± 0.15
protein stability index (pdr5∆): 3.52 ± 0.11
protein stability index (san1∆): 3.23 ± 0.27
protein stability index (ubr1∆): 3.63 ± 0.14

SLLASKSTYRTPNFDDV [RIP1]
protein stability index (doa10∆): 2.78 ± 0.29
protein stability index (ubr1∆): 3.49 ± 0.17

ISPSAPSKDSFTKYKPA [YAR002W/NUP60]
protein stability index (doa10∆): 2.65 ± 0.079
protein stability index (pdr5∆): 2.9 ± 0.069
protein stability index (san1∆): 2.69 ± 0.094
protein stability index (ubr1∆): 2.98 ± 0.042

IHALAAKLLQENDTTLV [FAS1]
protein stability index (doa10∆): 2.53 ± 0.13
protein stability index (pdr5∆): 2.8 ± 0.14
protein stability index (san1∆): 2.86 ± 0.12
protein stability index (ubr1∆): 3.33 ± 0.18

PIAASTDLPIETAAMAS [RPN1]
protein stability index (doa10∆): 1.48 ± 0.041
protein stability index (pdr5∆): 1.64 ± 0.052
protein stability index (san1∆): 1.53 ± 0.06
protein stability index (ubr1∆): 1.71 ± 0.058

EDSMIMNQSSIDRGLFR [RPB2]
protein stability index (doa10∆): 2.55 ± 0.08
protein stability index (pdr5∆): 2.61 ± 0.093
protein stability index (san1∆): 2.62 ± 0.098
protein stability index (ubr1∆): 2.91 ± 0.065

LEDDSLLSYPIKLDRWL [RPN12]
protein stability index (doa10∆): 3.12 ± 0.072
protein stability index (pdr5∆): 2.87 ± 0.057
protein stability index (san1∆): 2.99 ± 0.072
protein stability index (ubr1∆): 2.78 ± 0.063

HNMLNLLIHRKGLTYLH [PRP8]
protein stability index (doa10∆): 1.33 ± 0.08
protein stability index (pdr5∆): 1.45 ± 0.038
protein stability index (san1∆): 1.6 ± 0.1
protein stability index (ubr1∆): 1.66 ± 0.049

LMYATDWQMMTSPVTGA [CSL4]
protein stability index (doa10∆): 2.85 ± 0.15
protein stability index (pdr5∆): 3.21 ± 0.2
protein stability index (ubr1∆): 2.79 ± 0.28

LAVLALVIVKKGEQELE [RPS6A]
protein stability index (doa10∆): 1.61 ± 0.038
protein stability index (pdr5∆): 1.56 ± 0.045
protein stability index (san1∆): 2 ± 0.072
protein stability index (ubr1∆): 2.54 ± 0.05

AGNSQITSGGFLLKAYI [SRB5]
protein stability index (doa10∆): 2.11 ± 0.1
protein stability index (pdr5∆): 2.53 ± 0.097
protein stability index (san1∆): 2.24 ± 0.17
protein stability index (ubr1∆): 2.92 ± 0.11

KLNQKYDIVKFLTVSKL [GRR1]
protein stability index (doa10∆): 1.76 ± 0.037
protein stability index (pdr5∆): 1.99 ± 0.03
protein stability index (san1∆): 2.06 ± 0.052
protein stability index (ubr1∆): 2.04 ± 0.026

LPVNIRRIIQNAQQTFH [RPO21]
protein stability index (doa10∆): 2 ± 0.053
protein stability index (pdr5∆): 2.01 ± 0.05
protein stability index (san1∆): 2.64 ± 0.075
protein stability index (ubr1∆): 1.56 ± 0.051

GVATKDKFFTLSAENIE [SCL1]
protein stability index (ubr1∆): 3.28 ± 0.25

GVLLPTRIKLLLTKNVS [RPS6A]
protein stability index (doa10∆): 1.43 ± 0.11
protein stability index (pdr5∆): 1.49 ± 0.11
protein stability index (ubr1∆): 2.03 ± 0.11

QQTGLVDAITRCYQPFE [SNU114]
protein stability index (doa10∆): 2.53 ± 0.069
protein stability index (pdr5∆): 2.76 ± 0.056
protein stability index (san1∆): 3.04 ± 0.041
protein stability index (ubr1∆): 2.98 ± 0.05

APLNFNPIIENNVDNKY [SSN2]
protein stability index (doa10∆): 2.69 ± 0.052
protein stability index (pdr5∆): 2.97 ± 0.049
protein stability index (san1∆): 2.79 ± 0.046
protein stability index (ubr1∆): 2.88 ± 0.046

IGTINSIVHINSQERVQ [SIR2]
protein stability index (doa10∆): 2.13 ± 0.037
protein stability index (pdr5∆): 2.16 ± 0.034
protein stability index (san1∆): 2.12 ± 0.05
protein stability index (ubr1∆): 1.95 ± 0.026
